Measured values taken from US20260053904A1 (BIOATLA, published 2026).
Changes are numbered by the printed parent chain. Blank lines part the entries; values can stand above or below the binder they belong to.

Key:
[1] = molecular target: T1, recombinant human EpCAM extracellular domain (human, UniProt P16422 24-265); test: ELISA on human EpCAM at pH 6.0 after heating the antibody for 1 h at 4, 37, 45, 55 or 60 C
T1 construct: extracellular domain; Plate-coated antigen of the ELISAs; also called human EpCAM ECD; recombinant EpCAM antigen
T1 sequence (looked up): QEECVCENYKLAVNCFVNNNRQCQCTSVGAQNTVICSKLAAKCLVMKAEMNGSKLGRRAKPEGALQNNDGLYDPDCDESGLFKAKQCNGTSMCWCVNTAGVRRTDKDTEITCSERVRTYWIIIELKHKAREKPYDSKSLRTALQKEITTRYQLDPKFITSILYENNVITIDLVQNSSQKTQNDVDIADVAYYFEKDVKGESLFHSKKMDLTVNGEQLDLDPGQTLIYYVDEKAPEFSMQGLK
Description: The thermostability of the humanized conditionally active anti-EpCAM antibodies was evaluated by measuring their binding activities after heat treatment. The binding activities of the humanized conditionally active anti-EpCAM antibodies to human EpCAM after heat treatment for one (1) hour at different temperatures at pH 6.0 and pH 7.4 were measured by ELISA.
(§1) The ELISA assay was performed using the following protocol: [0388] 1) Coat ELISA plates with 100 μL of 0.5 μg/mL (06_20_17 and 06_28_17 Experiments) or 1 μg/mL (07_06_17 and 07_11_17 Experiments) recombinant EpCAM antigen in carbonate-bicarbonate coating buffer [0389] 2) Cover plates with sealing film and incubate overnight at 4° C. [0390] 3) Decant plates and tap out residual liquid on a stack of paper towels [0391] […] 5) Add 200 μL of various pH incubation buffers to the wells according to the sample map.

[2] = molecular target: T1, recombinant human EpCAM extracellular …; test: direct binding ELISA, human EpCAM, pH 7.4 (table prints IC50, the text paragraph 376 says EC50)
[3] = molecular target: T2, cyno EpCAM (recombinant, ELISA antigen) (cynomolgus monkey); test: direct binding ELISA, cyno EpCAM, pH 7.4 (printed as IC50)
T2 construct: extracellular domain; also called cynomolgus EpCAM extracellular domain

[4] = molecular target: T1, recombinant human EpCAM extracellular …; test: direct binding ELISA, human EpCAM, pH 6.0 (table prints IC50, the text paragraph 376 says EC50)
[5] = molecular target: T2, cyno EpCAM (recombinant, ELISA antigen); test: direct binding ELISA, cyno EpCAM, pH 6.0 (printed as IC50)
[6] = molecular target: T2, cyno EpCAM (recombinant, ELISA antigen); test: direct binding ELISA, cyno EpCAM; ratio of the printed IC50 at pH 7.4 to pH 6.0
[7] = molecular target: T1, recombinant human EpCAM extracellular …; test: direct binding ELISA, human EpCAM; ratio of the printed IC50 at pH 7.4 to pH 6.0
[8] = molecular target: T3, human EpCAM expressed on cells (CHO, Colo205, 293) (human, UniProt P16422 24-314); test: FACS on Colo205 cells, antibody at 1 ug/mL, pH 6.0 and pH 7.4
T3 construct: whole, on cells; also called CHO cells expressing human EpCAM; Colo205 cells expressing human EpCAM
T3 sequence (looked up): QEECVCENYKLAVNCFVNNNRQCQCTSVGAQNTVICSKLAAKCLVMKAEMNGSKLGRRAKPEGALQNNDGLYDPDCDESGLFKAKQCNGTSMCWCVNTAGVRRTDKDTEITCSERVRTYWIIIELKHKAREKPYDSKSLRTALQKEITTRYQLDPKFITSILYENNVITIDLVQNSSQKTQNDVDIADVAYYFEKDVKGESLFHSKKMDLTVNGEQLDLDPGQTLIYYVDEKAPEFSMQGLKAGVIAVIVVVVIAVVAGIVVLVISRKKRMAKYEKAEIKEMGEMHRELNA
Description: The binding activity of these anti-EpCAM antibodies to EpCAM expressing Colo205 cells were measured by fluorescence activated cell sorting (FACS) at two different pH values of 6.0 and 7.4. Different dosages of the antibodies of 10 μg/mL, 1 μg/mL, 0.1 μg/mL and 0.01 μg/mL were used.

[9] = molecular target: T1, recombinant human EpCAM extracellular …; test: ELISA on human EpCAM, pH range 5.0 to 7.4
[10] = molecular target: T3, human EpCAM expressed on cells (CHO, …); test: FACS on 293 cells expressing human EpCAM, pH 7.4
Description: (§2) A similar FACS analysis was also carried out using 293 cells expressing human EpCAM. […] The EC50 values for binding to the 293 cells expressing human EpCAM by the humanized conditionally active anti-EpCAM antibodies are summarized in Table 10.

[11] = molecular target: T3, human EpCAM expressed on cells (CHO, …); test: FACS on Colo205 cells expressing human EpCAM, pH 7.4
Description: (§3) Binding activities of the humanized conditionally active anti-EpCAM antibodies to Colo205 cells expressing human EpCAM were measured by FACS at pH 6.0 and pH 7.4. […] The EC50 values for binding to the Colo205 cells expressing human EpCAM by the humanized conditionally active anti-EpCAM antibodies are summarized in Table 9.

[12] = molecular target: T1, recombinant human EpCAM extracellular …; test: ELISA, human EpCAM, pH 7.4
Description: (§4) The binding activities of the humanized conditionally active anti-EpCAM antibodies to human EpCAM were measured by ELISA, using the template antibody BAP-1-5-01-06, as a control. The EC50 values of the humanized conditionally active anti-EpCAM antibodies for binding to human EpCAM at pH 6.0 and pH 7.4 are summarized in Table 5.
as §1

[13] = molecular target: T2, cyno EpCAM (recombinant, ELISA antigen); test: ELISA, cyno EpCAM, pH 7.4
Description: (§5) The binding activities of the humanized conditionally active anti-EpCAM antibodies to cyno EpCAM were similarly measured. The EC50 for binding to the cyno EpCAM at pH 6.0 and pH 7.4 for the humanized conditionally active anti-EpCAM antibodies are summarized in Table 7.
as §1

[14] = molecular target: T3, human EpCAM expressed on cells (CHO, …); test: FACS on Colo205 cells expressing human EpCAM, pH 6.0
Description: as §3

[15] = molecular target: T4, cyno EpCAM expressed on 293 cells (cynomolgus monkey); test: FACS on 293 cells expressing cyno EpCAM, pH 6.0
T4 construct: whole, on cells; also called 293 cells expressing cyno EpCAM
T4 sequence (Q1WER1 24-314): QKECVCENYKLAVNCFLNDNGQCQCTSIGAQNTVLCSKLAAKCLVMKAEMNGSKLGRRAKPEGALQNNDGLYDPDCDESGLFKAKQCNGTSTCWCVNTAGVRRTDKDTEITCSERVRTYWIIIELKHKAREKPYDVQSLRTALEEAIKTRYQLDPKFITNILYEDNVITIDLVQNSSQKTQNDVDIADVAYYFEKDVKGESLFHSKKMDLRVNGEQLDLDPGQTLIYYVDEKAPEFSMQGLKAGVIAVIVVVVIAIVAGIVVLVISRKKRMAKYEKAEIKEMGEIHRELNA
Description: (§6) A similar FACS analysis was also carried out using 293 cells expressing cyno EpCAM. […] The EC50 values for binding to the 293 cells expressing cyno EpCAM by the humanized conditionally active anti-EpCAM antibodies are summarized in Table 11.

[16] = molecular target: T2, cyno EpCAM (recombinant, ELISA antigen); test: ELISA, cyno EpCAM, pH 6.0
Description: as §5, §1

[17] = molecular target: T3, human EpCAM expressed on cells (CHO, …); test: FACS on 293 cells expressing human EpCAM, pH 6.0
Description: as §2

[18] = molecular target: T4, cyno EpCAM expressed on 293 cells; test: FACS on 293 cells expressing cyno EpCAM, pH 7.4
Description: as §6

[19] = molecular target: T1, recombinant human EpCAM extracellular …; test: ELISA, human EpCAM, pH 6.0
Description: as §4, §1

- binding result [1]: binds
B1: 105.4-05-04 (antibody, V domains shown)
VH: EVQLVQSGAEVKKPGATVKISCKVSGYTFTSYWMHWIRQSPSRGLEWLGYIRPSTGYTEYNQKFKDRFTISRDDSKNTAYLQMNSLKTEDTAVYYCGRGDNWVGFANWGQGTLVTVSS
VL: EIVMTQSPATLSVSPGERATLSCSASSSISYMHWYQQKPGKAPKLLIYSTSNLASGVPSRFSGSGSGTDFTLTISSLQPEDFATYYCHQWSTYETFGQGTKVEIK

- IC50 [2]: 0.262 µg/mL
- IC50 [3]: 0.673 µg/mL
- IC50 [4]: 0.105 µg/mL
- IC50 [5]: 0.152 µg/mL
- ratio (pH7.4/pH6.0) [6]: 4.44
- ratio (pH7.4/pH6.0) [7]: 2.5
B2: BA-105-06-02 (antibody, V domains shown)
VH: B1 VH with S40P, S42G, R43K, L48I, D74N, A79L, K87R, T88A
VL: EIVLTQSPDFQSVTPKEKVTITCSASSSISYMHWYQQKPGKAPKLLIYSTSSLASGVPDRFSGSGSGTDFTLKISRVEAEDVGVYYCHQWSTYETFGQGTKVEIK
notes: Humanized

- binding result [8]: binds
- binding result [9]: binds
B3: BAP-105-01-03 (antibody, V domains shown)
VH: QVQLQQSGAELAKPGASVKVSCKASGYTFTSYWMHWVKQRPGQGLEWIGYIRPSTGYTEYNQKFKDKATLTADKSSSTAYMQLSSLTFEDSAVYYCGDGDNWVGFANWGQGTLVTVSA
VL: QIVLTQSPAIMSASLGEEIALTCSASSSISYMHWYQQKSGTSPKLLIYSTSNLASGVPSRFSGSGSGTFYSLTISSVEAEDAADYFCHQWSTYHTFGSGTKLEIK

- EC50 [10]: 0.125 µg/mL
- IC50 [2]: 0.0423 µg/mL
- EC50 [11]: 0.268 µg/mL
- IC50 [3]: 0.0416 µg/mL
- IC50 [4]: 0.0586 µg/mL
- EC50 [12]: 0.00781 µg/mL
- EC50 [13]: 0.3 µg/mL
- EC50 [14]: 0.263 µg/mL
- EC50 [15]: 0.625 µg/mL
- IC50 [5]: 0.0288 µg/mL
- ratio (pH7.4/pH6.0) [6]: 1.44
- EC50 [16]: 0.0112 µg/mL
- ratio (pH7.4/pH6.0) [7]: 0.72
- EC50 [17]: 0.092 µg/mL
- EC50 [18]: 0.863 µg/mL
- EC50 [19]: 0.00833 µg/mL
B4: BAP-105-01-01 (antibody, V domains shown)
VH: B3 VH with D98R
VL: B3 VL
notes: Non-conditionally active control; also called template antibody (WT)

- binding result [8]: binds
- binding result [1]: binds
B5: BAP-105-01-06 (antibody, V domains shown)
VH: B3 VH with D98R
VL: B3 VL with H94E
notes: also called BAP-1-5-01-06
